First the molecules themselves.
B1: hBDB-4G8.1 (antibody, V domains shown)
VH: EVQLVQSGSELKKPGASVKVSCKASGYTFTNYGMYWVRQAPGQGLEWMGWINTETGKPTYADDFKGRFVFSLDTSVSTAYLQISSLKAEDTAVYYCARTNYYYRSYIFYFDYWGQGTMVTVSS
VL: AIQLTQSPSSLSASVGDRVTITCRASESVSTHMHWYQQKPGKAPKLLIYGASNLESGVPSRFSGSGSGTDFTLTISSLQPEDFATYYCQQSWNDPFTFGQGTKLEIK
notes: Humanized IgG made from pHybE vectors in HEK293 cells
B2: hBDB-4G8.10 (antibody, V domains shown)
VH: EIQLVQSGAEVKKPGASVKVSCKASGYTFTNYGMYWVRQAPGQGLEYMGWINTETGKPTYADDFKGRFTFTLDTSTSTAYMELRSLRSDDTAVYFCARTNYYYRSYIFYFDYWGQGTMVTVSS
VL: AIQLTQSPSSLSASVGDRVTITCRASESVSTHMHWYQQKPGKAPKLLIYGASNLESGVPSRFSGSGSGTDFTLTISSLQPEDFATYYCQQSWNDPFTFGQGTKLEIK
notes: as for B1
B3: hBDB-4G8.2 (antibody, V domains shown)
VH: EVQLVQSGSELKKPGASVKVSCKASGYTFTNYGMYWVRQAPGQGLEWMGWINTETGKPTYADDFKGRFVFSLDTSVSTAYLQISSLKAEDTAVYYCARTNYYYRSYIFYFDYWGQGTMVTVSS
VL: ATQLTQSPSLSASVGDRVTITCRASESVSTHMHWYQQKPGKQPKLLIYGASNLESGVPSRFSGSGSGTDFTLTISSLQPEDFATYFCQQSWNDPFTFGQGTKLEIK
notes: as for B1
B4: hBDB-4G8.3 (antibody, V domains shown)
VH: EVQLVQSGSELKKPGASVKVSCKASGYTFTNYGMYWVRQAPGQGLEWMGWINTETGKPTYADDFKGRFVFSLDTSVSTAYLQISSLKAEDTAVYYCARTNYYYRSYIFYFDYWGQGTMVTVSS
VL: DTVLTQSPATLSLSPGERATLSCRASESVSTHMHWYQQKPGQAPRLLIYGASNLESGVPARFSGSGSGTDFTLTISSLEPEDFAVYFCQQSWNDPFTFGQGTKLEIK
notes: as for B1
B5: hBDB-4G8.7 (antibody, V domains shown)
VH: EVQLVQSGAEVKKPGASVKVSCKASGYTFTNYGMYWVRQAPGQGLEWMGWINTETGKPTYADDFKGRVTMTTDTSTSTAYMELRSLRSDDTAVYYCARTNYYYRSYIFYFDYWGQGTMVTVSS
VL: AIQLTQSPSSLSASVGDRVTITCRASESVSTHMHWYQQKPGKAPKLLIYGASNLESGVPSRFSGSGSGTDFTLTISSLQPEDFATYYCQQSWNDPFTFGQGTKLEIK
notes: as for B1
B6: hBDB-4G8.5 (antibody, V domains shown)
VH: EIQLVQSGSELKKPGASVKVSCKASGYTFTNYGMYWVRQAPGQGLEYMGWINTETGKPTYADDFKGRFVFSLDTSVSTAYLQISSLKAEDTAVYFCARTNYYYRSYIFYFDYWGQGTMVTVSS
VL: ATQLTQSPSLSASVGDRVTITCRASESVSTHMHWYQQKPGKQPKLLIYGASNLESGVPSRFSGSGSGTDFTLTISSLQPEDFATYFCQQSWNDPFTFGQGTKLEIK
notes: as for B1
B7: hBDB-4G8.6 (antibody, V domains shown)
VH: EIQLVQSGSELKKPGASVKVSCKASGYTFTNYGMYWVRQAPGQGLEYMGWINTETGKPTYADDFKGRFVFSLDTSVSTAYLQISSLKAEDTAVYFCARTNYYYRSYIFYFDYWGQGTMVTVSS
VL: DTVLTQSPATLSLSPGERATLSCRASESVSTHMHWYQQKPGQAPRLLIYGASNLESGVPARFSGSGSGTDFTLTISSLEPEDFAVYFCQQSWNDPFTFGQGTKLEIK
notes: as for B1
B8: hBDB-4G8.4 (antibody, V domains shown)
VH: EIQLVQSGSELKKPGASVKVSCKASGYTFTNYGMYWVRQAPGQGLEYMGWINTETGKPTYADDFKGRFVFSLDTSVSTAYLQISSLKAEDTAVYFCARTNYYYRSYIFYFDYWGQGTMVTVSS
VL: AIQLTQSPSSLSASVGDRVTITCRASESVSTHMHWYQQKPGKAPKLLIYGASNLESGVPSRFSGSGSGTDFTLTISSLQPEDFATYYCQQSWNDPFTFGQGTKLEIK
notes: as for B1
B9: hBDB-4G8.13 (antibody, V domains shown)
VH: EIQLVQSGTEVKKPGESLKISCKASGYTFTNYGMYWVKQMPGKGLEYMGWINTETGKPTYADDFKGRFTFSLDKSFNTAFLQWSSLKASDTAMYFCARTNYYYRSYIFYFDYWGQGTMVTVSS
VL: ETVLTQSPATLSVSPGERATLSCRASESVSTHMHWYQQKPGQAPRLLIYGASNLESGVPARFSGSGSGTDFTLTISSLQSEDFAVYFCQQSWNDPFTFGQGTRLEIK
notes: as for B1
B10: hBDB-4G8.14 (antibody, V domains shown)
VH: EIQLVQSGGGVVQPGGSLRLSCAASGYTFTNYGMYWVKQAPGKGLEYMGWINTETGKPTYADDFKGRFTFSLDTSKSTAYLQLNSLRAEDTAVYFCARTNYYYRSYIFYFDYWGQGTLVTVSS
VL: DTVLTQSPSTLSASPGERATISCRASESVSTHMHWYQQKPGQAPKLLIYGASNLESGVPSRFSGSRSGTDFTLTISSLQPEDFAVYFCQQSWNDPFTFGQGTKVEIK
notes: as for B1
B11: hBDB-4G8.8 (antibody, V domains shown)
VH: EVQLVQSGAEVKKPGASVKVSCKASGYTFTNYGMYWVRQAPGQGLEWMGWINTETGKPTYADDFKGRVTMTTDTSTSTAYMELRSLRSDDTAVYYCARTNYYYRSYIFYFDYWGQGTMVTVSS
VL: ATQLTQSPSLSASVGDRVTITCRASESVSTHMHWYQQKPGKQPKLLIYGASNLESGVPSRFSGSGSGTDFTLTISSLQPEDFATYFCQQSWNDPFTFGQGTKLEIK
notes: as for B1
B12: hBDB-4G8.9 (antibody, V domains shown)
VH: EVQLVQSGAEVKKPGASVKVSCKASGYTFTNYGMYWVRQAPGQGLEWMGWINTETGKPTYADDFKGRVTMTTDTSTSTAYMELRSLRSDDTAVYYCARTNYYYRSYIFYFDYWGQGTMVTVSS
VL: DTVLTQSPATLSLSPGERATLSCRASESVSTHMHWYQQKPGQAPRLLIYGASNLESGVPARFSGSGSGTDFTLTISSLEPEDFAVYFCQQSWNDPFTFGQGTKLEIK
notes: as for B1
B13: hBDB-4G8.11 (antibody, V domains shown)
VH: EIQLVQSGAEVKKPGASVKVSCKASGYTFTNYGMYWVRQAPGQGLEYMGWINTETGKPTYADDFKGRFTFTLDTSTSTAYMELRSLRSDDTAVYFCARTNYYYRSYIFYFDYWGQGTMVTVSS
VL: ATQLTQSPSLSASVGDRVTITCRASESVSTHMHWYQQKPGKQPKLLIYGASNLESGVPSRFSGSGSGTDFTLTISSLQPEDFATYFCQQSWNDPFTFGQGTKLEIK
notes: as for B1
B14: hBDB-4G8.12 (antibody, V domains shown)
VH: EIQLVQSGAEVKKPGASVKVSCKASGYTFTNYGMYWVRQAPGQGLEYMGWINTETGKPTYADDFKGRFTFTLDTSTSTAYMELRSLRSDDTAVYFCARTNYYYRSYIFYFDYWGQGTMVTVSS
VL: DTVLTQSPATLSLSPGERATLSCRASESVSTHMHWYQQKPGQAPRLLIYGASNLESGVPARFSGSGSGTDFTLTISSLEPEDFAVYFCQQSWNDPFTFGQGTKLEIK
notes: as for B1

In the assay the target is T1, human VEGF-A (human, UniProt P15692-4 27-191, limits assumed).
T1 construct: also called huVEGF-A
T1 sequence (P15692 other isoform, or with tags, fused parts or gaps limits assumed): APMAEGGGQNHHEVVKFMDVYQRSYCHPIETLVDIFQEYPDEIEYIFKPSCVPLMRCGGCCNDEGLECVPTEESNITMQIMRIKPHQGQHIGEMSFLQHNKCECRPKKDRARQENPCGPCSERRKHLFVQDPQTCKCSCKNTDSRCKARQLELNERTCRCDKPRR
Briefly: SPR (Biacore), antibody captured by anti-human Fc, VEGF-A injected. The procedure: For example, approximately 9000 RU of goat anti-human Fc specific polyclonal antibody (Thermo Fisher Scientific Inc., Rockford, Ill.) diluted in 10 mM sodium acetate (pH 4.5) is directly immobilized across a CM5 research grade biosensor chip using a standard amine coupling kit according to manufacturer's instructions and procedures at 25 μg/ml. Unreacted moieties on the biosensor surface were blocked with ethanolamine. For kinetic analysis, rate equations derived from the 1:1 Langmuir binding model were fitted simultaneously to multiple antigen injections (using global fit analysis) with the use of Scrubber 2 (BioLogic Software), Biacore Biaevaluation 4.0.1 software or Biacore T100 Evaluation software. Purified antibodies or DVD-Ig molecules were diluted in running buffer for capture across goat anti-human Fc reaction surfaces. Antibodies or DVD-Ig molecules to be captured as a ligand (1 μg/ml) were injected over reaction matrices at a flow rate of 10 μl/minute. During the assay, all measurements were referenced against the capture surface alone (i.e., with no captured antibody or DVD-Ig molecule). […] The equilibrium dissociation constant KD (M) of the reaction between antibodies and the target antigen was then calculated from the kinetic rate constants by the following formula: KD=Koff/Kₒₙ. Binding was recorded as a function of time and kinetic rate constants were calculated.
Background: In SPR one partner is held on a chip, and binding of the other changes the refractive index at the surface.
In the case of B1, the Kd (usually the free concentration of one partner at which half of the binding sites on the other are occupied at equilibrium, for simple one-to-one binding) is 5.8 pM and the on-rate constant (kon) (as a rule, a measure of how fast the partners come together) turned out to be 1.8e+07 M⁻¹ s⁻¹.

In the case of B2, binding was put at a Kd of 8.1 pM and the kon was 2.7e+07 M⁻¹ s⁻¹.

B3 returned a Kd of 3.6 pM and an on-rate (kon) of 1.7e+07 M⁻¹ s⁻¹.

For the molecule B4, the Kd was 4.8 pM and the kon was found to be 1e+07 M⁻¹ s⁻¹.

B5 displayed a Kd of 34 pM and a kon of 3.7e+07 M⁻¹ s⁻¹.

As to B6, binding was put at a Kd of 1.6 pM and the kon came to 2.5e+07 M⁻¹ s⁻¹.

B7 showed a Kd of 1.4 pM and a kon of 2.6e+07 M⁻¹ s⁻¹.

The molecule B8 came in with a Kd of 5.5 pM and a kon of 2.7e+07 M⁻¹ s⁻¹.

B9 had a Kd of 7.6 pM and a kon of 2.2e+07 M⁻¹ s⁻¹.

Regarding B10, binding was characterised by a dissociation constant (Kd) of 3.7 pM and the on-rate constant (kon) came to 1.5e+07 M⁻¹ s⁻¹.

In turn, B11 yielded a Kd of 47 pM and a kon of 1.8e+07 M⁻¹ s⁻¹.

As to B12, binding was put at a Kd of 62 pM and the kon was 1.4e+07 M⁻¹ s⁻¹.

B13 registered a Kd of 1.3 pM and a kon of 2.6e+07 M⁻¹ s⁻¹.

The molecule B14 displayed a Kd of 1.2 pM and a kon of 2.6e+07 M⁻¹ s⁻¹.

The values above are taken from US20170015742A1 (published 2017).
